Data on four molecules can be found in patent publication US20250297021A1 (SHANDONG SIMCERE BIOPHARMACEUTICAL CO NO 1, published 2025).

“And” between values parts separate entries of the source, which are not always exact repeats. Equal entries are not always repeated.

Test [1] deals with T1, human BCMA on cells (human, UniProt Q02223 1-184).
T1 construct: whole, on cells; also called H929 cells; U266 cells
T1 sequence (looked up): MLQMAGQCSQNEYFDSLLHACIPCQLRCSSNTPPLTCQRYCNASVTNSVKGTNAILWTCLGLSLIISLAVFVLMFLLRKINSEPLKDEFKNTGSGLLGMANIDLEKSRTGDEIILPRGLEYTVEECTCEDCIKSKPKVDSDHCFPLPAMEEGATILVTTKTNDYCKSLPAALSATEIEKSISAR
Kind of test: FACS, H929 cells. On the procedure: (§1) H929 cells, U266 cells and RPMI8226 cells were subjected to scale-up culture in T-75 cell culture flask to logarithmic growth phase, and the cells were pipetted to single cell suspension. After counting the cells, centrifugation was performed and the cell pellet was resuspended in FACS buffer (PBS+2% fetal calf serum) to 2×10⁶ cells per ml, and the obtained suspension was added to a 96-well FACS reaction plate at 50 μl per well.
In general terms: In flow cytometry, cells or beads pass a laser one at a time.

For test [2], the target named is T1, human BCMA on cells. Kind of test: FACS, U266 cells. On the procedure: as §1
In test [3] the target is T1, human BCMA on cells. Kind of test: FACS, H929 cells. The method, then:
(§2) The desired cells were scale-up cultured in T-75 cell culture flasks to the logarithmic growth phase, and the cells were pipetted into a single cell suspension. After the cells were counted, the cells were centrifuged and the cell pellet was resuspended in FACS buffer (PBS+2% fetal calf serum) to 2×10⁶ cells per ml, and the suspension was added to the 96-well FACS reaction plate at 50 μl per well, then the sample to be tested of the chimeric antibody was added at 50 μl per well and the mixture was incubated at 4° C. for 1 h. The obtained mixture was centrifuged and washed 3 times with a PBS buffer. […] The obtained mixture was centrifuged and washed 3 times with a PBS buffer. 100 μl of the mixture was taken for detection and result analysis by FACS (FACS Canto™, purchased from BD Company). Data analysis was performed by software (FlowJo) to obtain the mean fluorescence intensity (MFI) of the cells. Then, a software (GraphPad Prism8) was used for analysis, data fitting and EC50 calculation. The results are shown in Table 10 and FIGS. 10A-10B, FIGS. 11A-11B, and FIGS. 12A-12B. All seven chimeric antibodies bind to three types of BCMA-expressing endogenous cells.
This is another data set of the same source.

Test [4] deals with T1, human BCMA on cells. Kind of test: FACS, U266 cells. On the procedure:
as §2
The source holds these as a separate data set.

Test [5] has as its target T1, human BCMA on cells. Kind of test: FACS, RPMI8226 cells. On the procedure: as §1
Test [6] addresses T1, human BCMA on cells. Kind of test: FACS, RPMI8226 cells. The method, then:
as §2
The source holds these as a separate data set.

The target of test [7] is T2, human BCMA-His protein (human, UniProt Q02223 1-54).
T2 construct: bought; also called human BCMA protein; not shown: His tag
T2 sequence (looked up): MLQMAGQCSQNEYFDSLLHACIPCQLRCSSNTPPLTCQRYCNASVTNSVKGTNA
Kind of test: ELISA, coated human BCMA-His. A general note: ELISA stands for enzyme-linked immunosorbent assay.

A further test deals with T3, monkey BCMA-His protein (monkey, UniProt A0A2K5UD97 1-53).
T3 construct: bought; monkey species not further stated for this product; also called monkey BCMA protein
Kind of test: ELISA, coated monkey BCMA-His.

Test [8] has as its target T2, human BCMA-His protein. Kind of test: competition ELISA, coated human BCMA; blocked ligand hAPRIL-biotin.
Test [9] has as its target T4, human BCMA-His protein (human, UniProt Q02223 1-54).
T4 construct: Bought protein; also called human BCMA protein; BCMA antigen protein; not shown: His tag
T4 sequence (looked up): T2 sequence (looked up)
Kind of test: SPR, antibody captured on Protein A chip, BCMA-His in solution, 1:1 Langmuir. On the procedure:
(§3) A sample buffer and a running buffer were HBS-EP+ (10 mM HEPES, 150 mM NaCl, 3 mM EDTA and 0.05% surfactant P20) (GE Healthcare; BR-1006-69). The flow-through cell was set to 25° C. The sample block was set to 16° C. Both were pretreated with the running buffer. In each cycle, an antibody to be tested was first captured with a Protein A chip, and then a single concentration of BCMA antigen protein was injected. The binding and dissociation processes of the antibody and the antigen protein were recorded, and finally Glycine pH 1.5 (GE Helthcare; BR-1003-54) was used to complete chip regeneration. Binding was measured by injecting different concentrations of BCMA-His in solution for 240 s with a flow rate of 30 μL/min. The concentration started from 200 nM (see the detailed results for the actual concentration in the test) and was diluted at 1:1, making a total of 5 concentrations. The dissociation phase was monitored for up to 600 s and was triggered by switching from sample solution to running buffer. The surface was regenerated by washing with a 10 mM glycine solution (pH 1.5) for 30 s at a flow rate of 30 μL/min. Bulk refractive index difference was corrected by subtracting the response obtained from the goat anti-human Fc surface. Blank injection was also subtracted (=double reference). For calculation of apparent KD and other kinetic parameters, Langmuir 1:1 model was used. The binding rate (Kₐ), dissociation rate (Kdis) and binding affinity (KD) of the chimeric antibodies to human BCMA protein are shown in the table, wherein REGN5459-hlgG1 and HPN217-hHcAb antibodies were used as controls.
In general terms: Surface plasmon resonance follows binding to a sensor surface in real time, without labels.

The target of test [10] is T5, BCMA expressed endogenously on U266 and H929 cells (UniProt Q02223 1-184, limits assumed).
T5 construct: whole, on cells; The cell line (U266 or H929) is named under assay in each row; also called B cell maturation antigen; CD269
T5 sequence (looked up): T1 sequence (looked up)
Kind of test: FACS on U266 cells. The method, then: as §2
The specific method was the same as that in Example 5 (C). First, the binding of humanized antibodies to U266 cells was detected. Based on the results, some humanized antibodies were selected and tested for binding to H929 cells. […]

Test [11] addresses T6, human BCMA-His protein (human, UniProt Q02223 1-54).
T6 construct: Analyte in the SPR assay; also called human BCMA protein; BCMA antigen protein; not shown: His tag
T6 sequence (looked up): T2 sequence (looked up)
Kind of test: SPR, antibody captured on Protein A chip, BCMA-His as analyte. The method, then: as §3
The specific method was the same as that in Example 6. The binding rate (Kₐ), dissociation rate (Kdis) and binding affinity (KD) of the humanized antibodies to human BCMA protein are shown Table 38, wherein REGN5459-hlgG1 antibody is used as a control.

T3 sequence (A0A2K5UD97 entry or part of it limits assumed): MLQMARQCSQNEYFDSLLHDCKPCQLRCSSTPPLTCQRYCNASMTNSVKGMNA

B1: REGN5459-hIgG1 (antibody, V domains shown)
VH: EVQLVESGGGLVQPGGSLRLSCAASGFTFSNFWMTWVRQAPGKGLEWVANMNQDGSEKYYVDSVKGRFTISRDNAKSSLYLQMNSLRAEDTAVYYCARDREYCISTSCYDDFDYWGQGTLVTVSS
VL: not shown
By EC50 is commonly meant the concentration giving half of the maximal effect. Broadly, the EC50 (read off the curve) is the midpoint of the concentration-response curve. On to B1, for which the EC50 with human BCMA on cells [1] is 6.78 nM; with human BCMA on cells [2], 9.12 nM; with human BCMA on cells [3] it was 8.39 nM and 7.74 nM; with human BCMA on cells [4], 9.52 nM and 12.8 nM; with human BCMA on cells [5], 10.4 nM; with human BCMA on cells [6], 6.79 nM and 4.52 nM. Also, the “EC50 (read off the curve)” value in the test with human BCMA-His protein [7] and with monkey BCMA-His protein was about 0.1 nM in each case. In addition, the “IC50 (read off the curve)” value with human BCMA-His protein [8] was about 5 nM.

B2: REGN5459-hIgG1 (antibody, V domains shown)
VH: B1 VH
VL: not shown
notes: also called REGN5459-hlgG1; control antibody
As usually defined, the Kd is the concentration at which binding is half-saturated. One may read the koff as the first-order rate constant of dissociation. Usually kon stands for the second-order rate constant of association. In the test with human BCMA-His protein [9], B2 returned a Kd of 0.2 nM, a koff of 0.00017 s⁻¹ and a kon of 850000 M⁻¹ s⁻¹.

B3: REGN5459-hIgG1 (antibody, V domains shown)
VH: B1 VH
VL: not shown
notes: Positive control antibody
For B3, the EC50 in test [10] is 9.81 nM and 19.4 nM and 9.49 nM and 18.2 nM. Besides, in the test with human BCMA-His protein [11], the Kd turned out to be 0.233 nM, the koff was found to be 0.000178 s⁻¹ and the kon came to 766000 M⁻¹ s⁻¹.

B4: HPN217-hHcAb (VHH)
VHH: EVQLVESGGGLVQPGRSLTLSCAASTNIFSISPYGWYRQAPGKQRELVAAIHGTSTLYADSVKGRFTISRDNAKNSIYLQMNSLRPEDTALYYCNKVPWGDYHPGNVYWGQGTQVTVSS
notes: also called control antibody
In the test with human BCMA-His protein [9], B4 gave a Kd of 0.818 nM, a koff of 0.00273 s⁻¹ and a kon of 3.34e+06 M⁻¹ s⁻¹.
